The values that follow come from patent US20260015399A1 (Boehringer Ingelheim, published 2026).

For assay [1], the target named is T1, human NPY2 receptor (human, UniProt P49146 1-381).
T1 sequence (looked up): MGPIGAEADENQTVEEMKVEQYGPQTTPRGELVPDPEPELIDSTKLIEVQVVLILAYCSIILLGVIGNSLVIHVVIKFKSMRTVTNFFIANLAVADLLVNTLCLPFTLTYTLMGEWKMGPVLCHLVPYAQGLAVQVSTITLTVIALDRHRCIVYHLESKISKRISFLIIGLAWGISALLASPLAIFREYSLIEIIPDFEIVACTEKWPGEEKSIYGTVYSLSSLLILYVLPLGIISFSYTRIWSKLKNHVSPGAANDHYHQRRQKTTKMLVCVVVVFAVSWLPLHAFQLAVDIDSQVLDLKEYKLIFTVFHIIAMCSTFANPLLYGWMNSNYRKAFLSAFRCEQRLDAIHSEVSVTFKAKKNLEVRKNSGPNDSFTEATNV
The assay is described as follows: cell-based or functional assay.

The next assay has as its target T2, human NPY1 receptor (human, UniProt P25929 1-384).
T2 sequence (looked up): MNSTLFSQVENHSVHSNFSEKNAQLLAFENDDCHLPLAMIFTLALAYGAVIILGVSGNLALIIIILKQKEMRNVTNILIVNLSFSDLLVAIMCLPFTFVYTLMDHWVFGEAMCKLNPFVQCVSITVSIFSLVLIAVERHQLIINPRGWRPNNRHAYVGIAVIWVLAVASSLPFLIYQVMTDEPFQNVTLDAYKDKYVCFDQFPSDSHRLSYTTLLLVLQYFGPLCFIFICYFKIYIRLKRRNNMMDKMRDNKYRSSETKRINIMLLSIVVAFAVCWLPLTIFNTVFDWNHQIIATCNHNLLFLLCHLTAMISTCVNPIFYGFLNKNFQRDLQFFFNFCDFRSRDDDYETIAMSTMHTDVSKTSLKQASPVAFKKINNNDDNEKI
Briefly: cell-based or functional assay.

For another assay, the target named is human NPY4 receptor (human, UniProt P50391 1-375). Briefly: cell-based or functional assay.
In a further assay the target is T3, human NPY5 receptor (human, UniProt Q15761 1-445).
T3 sequence (looked up): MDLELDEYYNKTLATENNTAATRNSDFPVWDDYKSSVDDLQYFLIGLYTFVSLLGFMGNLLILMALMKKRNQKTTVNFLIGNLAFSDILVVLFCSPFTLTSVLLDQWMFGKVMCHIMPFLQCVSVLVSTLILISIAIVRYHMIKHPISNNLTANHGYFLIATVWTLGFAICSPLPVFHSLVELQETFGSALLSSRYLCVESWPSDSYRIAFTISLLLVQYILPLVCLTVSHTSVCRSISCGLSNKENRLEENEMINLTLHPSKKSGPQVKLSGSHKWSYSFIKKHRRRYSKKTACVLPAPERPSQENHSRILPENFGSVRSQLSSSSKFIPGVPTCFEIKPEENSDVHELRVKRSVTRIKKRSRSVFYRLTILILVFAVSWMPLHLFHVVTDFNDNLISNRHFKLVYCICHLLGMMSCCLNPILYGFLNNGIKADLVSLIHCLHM
Briefly: cell-based or functional assay.

The target of assay [2] is T1, human NPY2 receptor. Briefly: RLB: displacement of 125I-PYY(1-36) from hNPY2R membranes. A general note: Loss of bound radioactivity is the signal in a displacement assay; it reports binding, not function.
The target in assay [3] is T1, human NPY2 receptor. Briefly: RLB, apparent Ki of filtrate after incubation at pH 8.1-8.2 (assumed 10 mg/ml). As for the experimental part:
(§1) The filtration RLB assay was carried out in 96-well plates in a final volume of 100 μl per well. Freeze-dried test peptides were dissolved in 100% dimethyl sulfoxide (DMSO) to stock solutions of 1 mM and serial dilutions were performed in assay buffer (50 mM HEPES, 5 mM MgCl₂, 1 mM CaCl₂), pH 7.4) containing 0.2% ovalbumin. […] Next, 80 μL membranes (HTS066M, ChemiSCREEN™ Human Neuropeptide Y2 Receptor Membrane Preparation, CHEMICON) were added to each well to give a final protein concentration of 0.5 μg/well. The plates were sealed and incubated at room temperature for 2 hours in a plate shaker set at 400 rpm. The incubation was stopped by vacuum filtration onto 0.5% polyethylene amine (PEI) presoaked GF/C filters using a 96-well FilterMate™ harvester (Perkin Elmer) followed by four washes with 300 μl/well ice-cold wash buffer (50 mM HEPES, 500 mM NaCl, pH7.4). Filter plates were then dried for 60 min at room temperature and the bottom of the plates was sealed with backing tape UniFilter-96. Finally, 50 μl/well scintillation counter cocktail (Microscint20, Packard) was added and the radioactivity was counted in the Packard TopCount NXT scintillation counter. IC₅₀ values (the half maximal inhibitory concentration of the agonist) were calculated by nonlinear regression analysis of sigmoidal dose-response curves.
The peptide was (partially) dissolved by shaking the filter unit horizontally at approx. 400 rpm for 2 hours at room temperature. The sample was filtered to remove any insoluble particles.

Assay [4] concerns the target T1, human NPY2 receptor. Briefly: RLB (125I-PYY(1-36) displacement, hNPY2R membranes), peptide from DMSO stock. As for the experimental part: as §1, with “curves. […]” for “curves.”

*1 amine or outer side, *2 acyl side, *3 side chain or, on linkers, in order; H or OH if unused. Side-chain parts run from the residue outwards. The star is where a group is joined. C18 diacid = O=C(O)CCCCCCCCCCCCCCCCC(=O)*; γGlu = O=C(O)[C@H](CCC(=O)[*:2])N[*:1]; Isovaleryl = CC(C)CC(=O)*; Ahx = NCCCCCC(=O)O

Chain of human NPY4 receptor (P50391 whole entry): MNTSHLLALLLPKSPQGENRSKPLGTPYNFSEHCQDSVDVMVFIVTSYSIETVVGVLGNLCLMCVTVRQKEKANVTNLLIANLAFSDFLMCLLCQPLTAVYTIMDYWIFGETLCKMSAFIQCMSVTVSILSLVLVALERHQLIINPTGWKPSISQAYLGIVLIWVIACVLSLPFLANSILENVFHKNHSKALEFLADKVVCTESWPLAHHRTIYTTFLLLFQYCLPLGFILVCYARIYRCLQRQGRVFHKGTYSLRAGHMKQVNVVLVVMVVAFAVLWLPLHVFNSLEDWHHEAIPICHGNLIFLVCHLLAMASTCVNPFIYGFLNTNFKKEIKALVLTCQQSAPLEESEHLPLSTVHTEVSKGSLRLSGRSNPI

For the molecule Isovaleryl-APEK([Ahx-γGlu-C18 diacid])PEADATPEEIQRYYVSLRHYYNWLTRQRY-NH2 [Compound 7], the “EC50, HTRF cAMP Gi assay” value was 0.143 nM with human NPY2 receptor [1], more than 5000 nM with human NPY1 receptor, more than 5000 nM with human NPY4 receptor and more than 5000 nM in the assay with human NPY5 receptor. For the same molecule, the Ki worked out at 1.04 nM with human NPY2 receptor [2] and 3.1 nM with human NPY2 receptor [3].

Isovaleryl-APEK([Ahx-γGlu-C18 diacid])PEADASPEELQRYYVALRHYYNWLTRQRY-NH2 [Compound 163]: the “EC50, HTRF cAMP Gi assay” value is 0.13 nM with human NPY2 receptor [1], more than 5000 nM in the assay with human NPY1 receptor, more than 5000 nM with human NPY4 receptor and more than 5000 nM in the assay with human NPY5 receptor. For the same molecule, the Ki in the assay with human NPY2 receptor [2] worked out at 0.67 nM; with human NPY2 receptor [3], 4.9 nM.

B1: Compound 184 (peptide)
peptide: Isovaleryl-APEK([Ahx-γGlu-C18 diacid])PEADATPEEIQRYYVALRHYYNWLTRQRY-NH2
SMILES: CC[C@H](C)[C@H](NC(=O)[C@H](CCC(=O)O)NC(=O)[C@H](CCC(=O)O)NC(=O)[C@@H]1CCCN1C(=O)[C@@H](NC(=O)[C@H](C)NC(=O)[C@H](CC(=O)O)NC(=O)[C@H](C)NC(=O)[C@H](CCC(=O)O)NC(=O)[C@@H]1CCCN1C(=O)[C@H](CCCCNC(=O)CCCCCNC(=O)CC[C@H](NC(=O)CCCCCCCCCCCCCCCCC(=O)O)C(=O)O)NC(=O)[C@H](CCC(=O)O)NC(=O)[C@@H]1CCCN1C(=O)[C@H](C)NC(=O)CC(C)C)[C@@H](C)O)C(=O)N[C@@H](CCC(N)=O)C(=O)N[C@@H](CCCNC(=N)N)C(=O)N[C@@H](Cc1ccc(O)cc1)C(=O)N[C@@H](Cc1ccc(O)cc1)C(=O)N[C@H](C(=O)N[C@@H](C)C(=O)N[C@@H](CC(C)C)C(=O)N[C@@H](CCCNC(=N)N)C(=O)N[C@@H](Cc1c[nH]cn1)C(=O)N[C@@H](Cc1ccc(O)cc1)C(=O)N[C@@H](Cc1ccc(O)cc1)C(=O)N[C@@H](CC(N)=O)C(=O)N[C@@H](Cc1c[nH]c2ccccc12)C(=O)N[C@@H](CC(C)C)C(=O)N[C@H](C(=O)N[C@@H](CCCNC(=N)N)C(=O)N[C@@H](CCC(N)=O)C(=O)N[C@@H](CCCNC(=N)N)C(=O)N[C@@H](Cc1ccc(O)cc1)C(N)=O)[C@@H](C)O)C(C)C
With B1, the “EC50, HTRF cAMP Gi assay” value with human NPY2 receptor [1] was 0.232 nM; with human NPY1 receptor, more than 5000 nM; with human NPY4 receptor it was more than 5000 nM; with human NPY5 receptor it was more than 5000 nM. Moreover, the Ki in the assay with human NPY2 receptor [2] stood at 0.64 nM.

B2: Compound 195 (peptide)
peptide: Isovaleryl-APAK([Ahx-γGlu-C18 diacid])PEEDASPEEIQRYYISLRHYYNWLTRQRY-NH2
SMILES: CC[C@H](C)[C@H](NC(=O)[C@H](Cc1ccc(O)cc1)NC(=O)[C@H](Cc1ccc(O)cc1)NC(=O)[C@H](CCCNC(=N)N)NC(=O)[C@H](CCC(N)=O)NC(=O)[C@@H](NC(=O)[C@H](CCC(=O)O)NC(=O)[C@H](CCC(=O)O)NC(=O)[C@@H]1CCCN1C(=O)[C@H](CO)NC(=O)[C@H](C)NC(=O)[C@H](CC(=O)O)NC(=O)[C@H](CCC(=O)O)NC(=O)[C@H](CCC(=O)O)NC(=O)[C@@H]1CCCN1C(=O)[C@H](CCCCNC(=O)CCCCCNC(=O)CC[C@H](NC(=O)CCCCCCCCCCCCCCCCC(=O)O)C(=O)O)NC(=O)[C@H](C)NC(=O)[C@@H]1CCCN1C(=O)[C@H](C)NC(=O)CC(C)C)[C@@H](C)CC)C(=O)N[C@@H](CO)C(=O)N[C@@H](CC(C)C)C(=O)N[C@@H](CCCNC(=N)N)C(=O)N[C@@H](Cc1c[nH]cn1)C(=O)N[C@@H](Cc1ccc(O)cc1)C(=O)N[C@@H](Cc1ccc(O)cc1)C(=O)N[C@@H](CC(N)=O)C(=O)N[C@@H](Cc1c[nH]c2ccccc12)C(=O)N[C@@H](CC(C)C)C(=O)N[C@H](C(=O)N[C@@H](CCCNC(=N)N)C(=O)N[C@@H](CCC(N)=O)C(=O)N[C@@H](CCCNC(=N)N)C(=O)N[C@@H](Cc1ccc(O)cc1)C(N)=O)[C@@H](C)O
In the case of B2, the “EC50, HTRF cAMP Gi assay” value is 0.197 nM with human NPY2 receptor [1], more than 5000 nM in the assay with human NPY1 receptor, more than 5000 nM with human NPY4 receptor and more than 5000 nM in the assay with human NPY5 receptor. This molecule also displayed a Ki in the assay with human NPY2 receptor [2] of 0.78 nM.

B3: Compound 193 (peptide)
peptide: Isovaleryl-APEK([Ahx-γGlu-C18 diacid])PEEEASPEEIQRYYVSLRHYYNWLTRQRY-NH2
SMILES: CC[C@H](C)[C@H](NC(=O)[C@H](CCC(=O)O)NC(=O)[C@H](CCC(=O)O)NC(=O)[C@@H]1CCCN1C(=O)[C@H](CO)NC(=O)[C@H](C)NC(=O)[C@H](CCC(=O)O)NC(=O)[C@H](CCC(=O)O)NC(=O)[C@H](CCC(=O)O)NC(=O)[C@@H]1CCCN1C(=O)[C@H](CCCCNC(=O)CCCCCNC(=O)CC[C@H](NC(=O)CCCCCCCCCCCCCCCCC(=O)O)C(=O)O)NC(=O)[C@H](CCC(=O)O)NC(=O)[C@@H]1CCCN1C(=O)[C@H](C)NC(=O)CC(C)C)C(=O)N[C@@H](CCC(N)=O)C(=O)N[C@@H](CCCNC(=N)N)C(=O)N[C@@H](Cc1ccc(O)cc1)C(=O)N[C@@H](Cc1ccc(O)cc1)C(=O)N[C@H](C(=O)N[C@@H](CO)C(=O)N[C@@H](CC(C)C)C(=O)N[C@@H](CCCNC(=N)N)C(=O)N[C@@H](Cc1c[nH]cn1)C(=O)N[C@@H](Cc1ccc(O)cc1)C(=O)N[C@@H](Cc1ccc(O)cc1)C(=O)N[C@@H](CC(N)=O)C(=O)N[C@@H](Cc1c[nH]c2ccccc12)C(=O)N[C@@H](CC(C)C)C(=O)N[C@H](C(=O)N[C@@H](CCCNC(=N)N)C(=O)N[C@@H](CCC(N)=O)C(=O)N[C@@H](CCCNC(=N)N)C(=O)N[C@@H](Cc1ccc(O)cc1)C(N)=O)[C@@H](C)O)C(C)C
As for B3, the “EC50, HTRF cAMP Gi assay” value in the assay with human NPY2 receptor [1] was 0.331 nM; with human NPY1 receptor, more than 5000 nM; in the assay with human NPY4 receptor it was more than 5000 nM; with human NPY5 receptor, more than 5000 nM. The molecule also returned a Ki with human NPY2 receptor [2] of 3.42 nM.

Turning to Isovaleryl-APAK([Ahx-γGlu-C18 diacid])PEEDASPEEIQRYYVSLRHYYNWLTRQRY-NH2 [Compound 63], the “EC50, HTRF cAMP Gi assay” value was 0.109 nM with human NPY2 receptor [1], more than 5000 nM with human NPY1 receptor, more than 5000 nM in the assay with human NPY4 receptor and more than 5000 nM in the assay with human NPY5 receptor. Further, the Ki was found to be 0.93 nM in the assay with human NPY2 receptor [2] and 6.6 nM with human NPY2 receptor [4].
